Laboratory results: patent US10117916B2, “Peptides and combination of peptides for use in immunotherapy against CLL and other cancers” (immatics biotechnologies GmbH, priority 2015, dated 2018)

Target: HLA-A*02:01 (Homo sapiens, UniProt P04439, D140Y/D185E/D98H/E176V/E277Q/G131W/G231S/I119V/I121R/I166T/I218V/L300P/L318F/N151K/N90K/P208A/P217A/Q86G/Q94H/R138H/R169H/T345S)
Assay: MHC binding assay: UV-ligand exchange with β2m ELISA (peptide exchange yield)
Settings: MHC class I binding score; binding to HLA-A*02:01 ranged by peptide exchange yield (UV-ligand exchange, β2m ELISA)
Source text: Candidate peptides for T cell based therapies according to the present invention were further tested for their MHC binding capacity (affinity). The individual peptide-MHC complexes were produced by UV-ligand exchange, where a UV-sensitive peptide is cleaved upon UV-irradiation, and exchanged with the peptide of interest as analyzed. Only peptide candidates that can effectively bind and stabilize the peptide-receptive MHC molecules prevent dissociation of the MHC complexes. To determine the yield of the exchange reaction, an ELISA was performed based on the detection of the light chain (β2m) of stabilized MHC complexes. The assay was performed as generally described in Rodenko et al. (Rodenko et al., 2006).
96 well MAXISorp plates (NUNC) were coated over night with 2 ug/ml streptavidin in PBS at room temperature, washed 4× and blocked for 1 h at 37° C. in 2% BSA containing blocking buffer. Refolded HLA-A*02:01/MLA-001 monomers served as standards, covering the range of 15-500 ng/ml. Peptide-MHC monomers of the UV-exchange reaction were diluted 100 fold in blocking buffer. Samples were incubated for 1 h at 37° C., washed four times, incubated with 2 ug/ml HRP conjugated anti-β2m for 1 h at 37° C., washed again and detected with TMB solution that is stopped with […]. Absorption was measured at 450 nm. Candidate peptides that show a high exchange yield (preferably higher than 50%, most preferred higher than 75%) are generally preferred for a generation and production of antibodies or fragments thereof, and/or T cell receptors or fragments thereof, as they show sufficient avidity to the MHC molecules and prevent dissociation of the MHC complexes.

Peptide Exchange | Substance
″+++″ (≥50 = +++) | 341 (LLAELPASVHA; listed as Homo sapiens) [compound 341]
″+++″ (≥50 = +++) | 298 (IILPVEVEV; listed as Homo sapiens) [compound 298]
″+++″ (≥50 = +++) | 319 (QVIPQLQTV; listed as Homo sapiens) [compound 319]
″+++″ (≥50 = +++) | 55 (FMEPTLLML; listed as Homo sapiens) [compound 55]
″++″ (≥20% = ++) | 173 (TVIENIHTI; listed as Homo sapiens) [compound 173]
″+++″ (≥50 = +++) | 177 (VLDDRELLL; listed as Homo sapiens) [compound 177]
″+++″ (≥50 = +++) | 191 (YIFDGSDGGV; listed as Homo sapiens) [compound 191]
″+++″ (≥50 = +++) | 208 (ILLKTEGINL; listed as Homo sapiens) [compound 208]
″++″ (≥20% = ++) | 247 (KLKDRLPSI; listed as Homo sapiens) [compound 247]
″+++″ (≥50 = +++) | 249 (LLPTGVFQV; listed as Homo sapiens) [compound 249]
″+++″ (≥50 = +++) | 333 (VTLEFPQLIRV; listed as Homo sapiens) [compound 333]
″+++″ (≥50 = +++) | 371 (SLADDSVLERL; listed as Homo sapiens) [compound 371]
″+++″ (≥50 = +++) | 111 (KLWNVAAPLYL; listed as Homo sapiens) [compound 111]
″+++″ (≥50 = +++) | 190 (VVMGTVPRL; listed as Homo sapiens) [compound 190]
″++″ (≥20% = ++) | 40 (FLDEDDMSL; listed as Homo sapiens) [compound 40]
″+++″ (≥50 = +++) | 227 (FLAEASVMTQL; listed as Homo sapiens) [compound 227]
″+++″ (≥50 = +++) | 70 (FVPDTPVGV; listed as Homo sapiens) [compound 70]
″+++″ (≥50 = +++) | 148 (SIVASLITV; listed as Homo sapiens) [compound 148]
″+++″ (≥50 = +++) | 235 (GLDDLLLFL; listed as Homo sapiens) [compound 235]
″+++″ (≥50 = +++) | 163 (SQLDISEPYKV; listed as Homo sapiens) [compound 163]
″+++″ (≥50 = +++) | 106 (FMASHLDYL; listed as Homo sapiens) [compound 106]
″+++″ (≥50 = +++) | 107 (ILYNLYDLL; listed as Homo sapiens) [compound 107]
″+++″ (≥50 = +++) | 358 (FLTDYLNDL; listed as Homo sapiens) [compound 358]
″+++″ (≥50 = +++) | 159 (SLQEEKLIYV; listed as Homo sapiens) [compound 159]

Peptide Exchange | Substance
″+++″ (≥50 = +++) | 119 (VLPAEFFEV; listed as Homo sapiens) [compound 119]
″+++″ (≥50 = +++) | 251 (LLYDNVPGA; listed as Homo sapiens) [compound 251]
″+++″ (≥50 = +++) | 161 (SMDDGMINV; listed as Homo sapiens) [compound 161]
″+++″ (≥50 = +++) | 226 (AMNISVPQV; listed as Homo sapiens) [compound 226]
″+++″ (≥50 = +++) | 321 (RLLEFELAQL; listed as Homo sapiens) [compound 321]
″+++″ (≥50 = +++) | 309 (ILYGTQFVL; listed as Homo sapiens) [compound 309]
″+++″ (≥50 = +++) | 39 (FLDALLTDV; listed as Homo sapiens) [compound 39]
″++++″ (≥75% = ++++) | 287 (FLWEEKFNSL; listed as Homo sapiens) [compound 287]
″+++″ (≥50 = +++) | 76 (GLLRIIPYL; listed as Homo sapiens) [compound 76]
″++″ (≥20% = ++) | 97 (LLFATQITL; listed as Homo sapiens) [compound 97]
″++″ (≥20% = ++) | 141 (QILSEIVEA; listed as Homo sapiens) [compound 141]
″+++″ (≥50 = +++) | 372 (SLFGPLPGPGPALV; listed as Homo sapiens) [compound 372]
″+++″ (≥50 = +++) | 275 (VLLFIEHSV; listed as Homo sapiens) [compound 275]
″++″ (≥20% = ++) | 180 (LLKDGPEIGL; listed as Homo sapiens) [compound 180]
″+++″ (≥50 = +++) | 276 (VLNDGAPNV; listed as Homo sapiens) [compound 276]
″++″ (≥20% = ++) | 75 (GLSIFAQDLRL; listed as Homo sapiens) [compound 75]
″+++″ (≥50 = +++) | 270 (TVLPVPPLSV; listed as Homo sapiens) [compound 270]
″+++″ (≥50 = +++) | 158 (SLPEAPLDV; listed as Homo sapiens) [compound 158]
″+++″ (≥50 = +++) | 312 (LLYNSTDPTL; listed as Homo sapiens) [compound 312]
″+++″ (≥50 = +++) | 157 (SLNIRDFTM; listed as Homo sapiens) [compound 157]
″+++″ (≥50 = +++) | 176 (VLAEQNIIPSA; listed as Homo sapiens) [compound 176]
″++″ (≥20% = ++) | 87 (HQIEAVDGEEL; listed as Homo sapiens) [compound 87]
″+++″ (≥50 = +++) | 50 (FLFEPVVKAFL; listed as Homo sapiens) [compound 50]
″+++″ (≥50 = +++) | 313 (LMADLEGLHL; listed as Homo sapiens) [compound 313]

Peptide Exchange | Substance
″+++″ (≥50 = +++) | 171 (TLVPPAALISI; listed as Homo sapiens) [compound 171]
″++″ (≥20% = ++) | 166 (TLDPNQVSL; listed as Homo sapiens) [compound 166]
″+++″ (≥50 = +++) | 88 (ILDEIGADVQA; listed as Homo sapiens) [compound 88]
″+++″ (≥50 = +++) | 92 (ILEPLNPLL; listed as Homo sapiens) [compound 92]
″+++″ (≥50 = +++) | 344 (VLAFENPQV; listed as Homo sapiens) [compound 344]
″++++″ (≥75% = ++++) | 338 (FLDMTNWNL; listed as Homo sapiens) [compound 338]
″+++″ (≥50 = +++) | 183 (VLMPTVYQQGV; listed as Homo sapiens) [compound 183]
″+++″ (≥50 = +++) | 361 (ILQEFESKL; listed as Homo sapiens) [compound 361]
″++++″ (≥75% = ++++) | 384 (YMIGSEVGNYL; listed as Homo sapiens) [compound 384]
″+++″ (≥50 = +++) | 73 (GLLEVISALQL; listed as Homo sapiens) [compound 73]
″+++″ (≥50 = +++) | 153 (SLLAELHVL; listed as Homo sapiens) [compound 153]
″+++″ (≥50 = +++) | 300 (ILLNPAYDVYL; listed as Homo sapiens) [compound 300]
″+++″ (≥50 = +++) | 205 (GLSQANFTL; listed as Homo sapiens) [compound 205]
″++++″ (≥75% = ++++) | 52 (FLVETGFLHV; listed as Homo sapiens) [compound 52]
″+++″ (≥50 = +++) | 182 (VLLSVPGPPV; listed as Homo sapiens) [compound 182]
″+++″ (≥50 = +++) | 4 (VIAELPPKVSV; listed as Homo sapiens) [compound 4]
″+++″ (≥50 = +++) | 42 (FLEEGGVVTV; listed as Homo sapiens) [compound 42]
″+++″ (≥50 = +++) | 19 (QVMEKLAAV; listed as Homo sapiens) [compound 19]
″+++″ (≥50 = +++) | 349 (ALATHILSL; listed as Homo sapiens) [compound 349]
″++″ (≥20% = ++) | 234 (GLDDAEYAL; listed as Homo sapiens) [compound 234]
″+++″ (≥50 = +++) | 22 (ALWDPVIEL; listed as Homo sapiens) [compound 22]
″+++″ (≥50 = +++) | 83 (GQGEVLVYV; listed as Homo sapiens) [compound 83]
″+++″ (≥50 = +++) | 115 (LLFDKLYLL; listed as Homo sapiens) [compound 115]
